# Values of other authors in article PMC2562372.
# Columns and labels:
# [1] = biological target: NRP1 (Homo sapiens) (UniProt O14786)
# [2] = biological target: VEGFR1 (Homo sapiens) (UniProt P17948)
# [3] = biological target: VEGFR2 (Homo sapiens) (UniProt P35968)
# Chain of UniProt P35968 (P35968 20-1356): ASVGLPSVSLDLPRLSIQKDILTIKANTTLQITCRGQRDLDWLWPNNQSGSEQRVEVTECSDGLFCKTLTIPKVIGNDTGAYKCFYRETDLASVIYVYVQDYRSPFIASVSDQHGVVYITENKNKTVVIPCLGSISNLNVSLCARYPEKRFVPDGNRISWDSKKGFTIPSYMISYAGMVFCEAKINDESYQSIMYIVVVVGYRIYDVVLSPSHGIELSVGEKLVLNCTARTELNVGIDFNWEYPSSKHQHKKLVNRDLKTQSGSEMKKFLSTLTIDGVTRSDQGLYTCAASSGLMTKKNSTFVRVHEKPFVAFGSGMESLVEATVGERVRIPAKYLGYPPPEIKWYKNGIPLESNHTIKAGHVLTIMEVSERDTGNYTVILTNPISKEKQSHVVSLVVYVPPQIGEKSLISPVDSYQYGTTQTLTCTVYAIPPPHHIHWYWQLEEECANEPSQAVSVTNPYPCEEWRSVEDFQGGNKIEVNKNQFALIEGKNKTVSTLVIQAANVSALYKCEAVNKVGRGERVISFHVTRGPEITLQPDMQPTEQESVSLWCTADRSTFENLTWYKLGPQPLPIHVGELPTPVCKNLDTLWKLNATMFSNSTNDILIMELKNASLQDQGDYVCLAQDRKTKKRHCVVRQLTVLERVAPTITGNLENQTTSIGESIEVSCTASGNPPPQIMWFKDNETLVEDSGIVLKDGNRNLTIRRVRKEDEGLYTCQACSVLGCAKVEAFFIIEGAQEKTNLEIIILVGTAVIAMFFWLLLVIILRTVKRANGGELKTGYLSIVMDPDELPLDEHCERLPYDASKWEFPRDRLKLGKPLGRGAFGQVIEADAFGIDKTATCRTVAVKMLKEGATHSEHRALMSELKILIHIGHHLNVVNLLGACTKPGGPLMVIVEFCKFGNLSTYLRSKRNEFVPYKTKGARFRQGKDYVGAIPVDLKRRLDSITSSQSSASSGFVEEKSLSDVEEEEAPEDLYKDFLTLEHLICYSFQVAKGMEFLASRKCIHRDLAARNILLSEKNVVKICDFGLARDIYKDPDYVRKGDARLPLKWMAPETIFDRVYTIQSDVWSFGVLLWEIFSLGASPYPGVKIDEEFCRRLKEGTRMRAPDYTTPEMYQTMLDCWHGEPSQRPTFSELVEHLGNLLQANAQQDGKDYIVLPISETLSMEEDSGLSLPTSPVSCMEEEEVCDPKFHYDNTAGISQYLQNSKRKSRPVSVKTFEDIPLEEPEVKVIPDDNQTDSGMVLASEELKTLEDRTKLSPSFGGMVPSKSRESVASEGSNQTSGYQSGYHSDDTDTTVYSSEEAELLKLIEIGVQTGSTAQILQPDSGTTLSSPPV
# Chain of UniProt O14786 (O14786 22-923): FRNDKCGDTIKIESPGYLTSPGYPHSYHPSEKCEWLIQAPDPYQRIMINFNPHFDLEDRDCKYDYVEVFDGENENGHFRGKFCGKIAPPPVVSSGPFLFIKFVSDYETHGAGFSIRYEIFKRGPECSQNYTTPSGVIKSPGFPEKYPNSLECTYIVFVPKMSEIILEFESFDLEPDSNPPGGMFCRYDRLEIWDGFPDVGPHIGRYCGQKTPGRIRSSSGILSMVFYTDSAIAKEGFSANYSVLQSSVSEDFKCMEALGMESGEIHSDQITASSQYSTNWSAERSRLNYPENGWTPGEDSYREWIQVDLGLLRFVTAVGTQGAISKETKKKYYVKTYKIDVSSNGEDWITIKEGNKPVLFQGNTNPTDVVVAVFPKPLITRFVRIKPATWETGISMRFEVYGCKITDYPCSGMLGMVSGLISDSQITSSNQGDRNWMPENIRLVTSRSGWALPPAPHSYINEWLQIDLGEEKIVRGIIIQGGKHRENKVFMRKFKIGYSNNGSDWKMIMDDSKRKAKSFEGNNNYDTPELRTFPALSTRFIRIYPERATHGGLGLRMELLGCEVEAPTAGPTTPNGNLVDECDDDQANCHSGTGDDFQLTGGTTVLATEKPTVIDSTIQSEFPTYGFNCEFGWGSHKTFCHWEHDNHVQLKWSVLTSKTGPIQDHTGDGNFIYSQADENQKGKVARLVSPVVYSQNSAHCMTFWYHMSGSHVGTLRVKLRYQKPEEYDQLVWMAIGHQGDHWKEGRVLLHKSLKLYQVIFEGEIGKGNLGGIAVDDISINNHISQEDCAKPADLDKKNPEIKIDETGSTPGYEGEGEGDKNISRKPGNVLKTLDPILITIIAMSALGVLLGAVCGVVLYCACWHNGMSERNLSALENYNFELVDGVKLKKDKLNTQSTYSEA
# Chain of UniProt P17948 (P17948 27-1338): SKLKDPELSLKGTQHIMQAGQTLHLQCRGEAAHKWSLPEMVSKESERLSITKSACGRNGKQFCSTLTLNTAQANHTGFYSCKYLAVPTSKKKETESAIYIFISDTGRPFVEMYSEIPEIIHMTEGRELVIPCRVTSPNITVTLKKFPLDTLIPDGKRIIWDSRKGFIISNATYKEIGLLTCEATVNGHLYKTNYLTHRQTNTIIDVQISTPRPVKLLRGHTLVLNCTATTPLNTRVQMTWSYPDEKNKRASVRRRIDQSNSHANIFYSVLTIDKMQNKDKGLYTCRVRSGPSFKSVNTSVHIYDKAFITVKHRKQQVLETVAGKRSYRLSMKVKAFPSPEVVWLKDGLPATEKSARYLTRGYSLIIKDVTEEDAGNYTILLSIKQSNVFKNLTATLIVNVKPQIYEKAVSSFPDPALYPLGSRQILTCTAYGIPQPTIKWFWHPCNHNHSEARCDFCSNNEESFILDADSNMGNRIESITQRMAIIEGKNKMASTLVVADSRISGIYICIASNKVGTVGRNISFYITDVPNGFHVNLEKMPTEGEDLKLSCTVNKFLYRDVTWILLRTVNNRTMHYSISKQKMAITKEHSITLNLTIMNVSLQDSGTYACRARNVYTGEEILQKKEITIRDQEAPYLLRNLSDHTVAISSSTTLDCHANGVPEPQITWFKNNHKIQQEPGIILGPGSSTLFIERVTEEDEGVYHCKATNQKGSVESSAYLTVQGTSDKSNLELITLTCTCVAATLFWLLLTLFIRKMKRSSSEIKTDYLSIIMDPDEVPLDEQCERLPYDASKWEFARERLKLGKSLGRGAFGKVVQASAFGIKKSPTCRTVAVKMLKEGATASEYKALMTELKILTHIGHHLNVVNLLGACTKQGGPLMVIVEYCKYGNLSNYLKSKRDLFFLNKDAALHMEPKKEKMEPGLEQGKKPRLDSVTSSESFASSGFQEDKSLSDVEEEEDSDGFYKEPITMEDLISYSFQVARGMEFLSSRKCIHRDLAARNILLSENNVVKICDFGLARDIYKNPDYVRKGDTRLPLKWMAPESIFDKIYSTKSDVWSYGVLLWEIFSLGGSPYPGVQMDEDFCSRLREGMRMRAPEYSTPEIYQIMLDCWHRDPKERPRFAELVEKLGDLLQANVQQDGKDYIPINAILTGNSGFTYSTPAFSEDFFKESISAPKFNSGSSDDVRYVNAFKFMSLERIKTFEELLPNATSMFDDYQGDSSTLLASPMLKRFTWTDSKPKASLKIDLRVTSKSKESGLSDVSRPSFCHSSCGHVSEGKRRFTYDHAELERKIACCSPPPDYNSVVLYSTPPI
Kd [1],Kd [2],Kd [3],Substance
0.312 nM,–,–,VEGF165 (from UniProt P15692)
–,0.033 nM,0.1 nM,VEGF (from UniProt P15692)
